Measured values taken from PMC7230020.

Target: activated RecA (RecA*), E. coli RecA polymerised on ssDNA with ATPγS (E. coli) (UniProt P0A7G6)
Assay: fluorescence polarisation

Chain of activated RecA (RecA*), E. coli RecA polymerised on ssDNA with ATPγS (E. coli) (P0A7G6 whole entry): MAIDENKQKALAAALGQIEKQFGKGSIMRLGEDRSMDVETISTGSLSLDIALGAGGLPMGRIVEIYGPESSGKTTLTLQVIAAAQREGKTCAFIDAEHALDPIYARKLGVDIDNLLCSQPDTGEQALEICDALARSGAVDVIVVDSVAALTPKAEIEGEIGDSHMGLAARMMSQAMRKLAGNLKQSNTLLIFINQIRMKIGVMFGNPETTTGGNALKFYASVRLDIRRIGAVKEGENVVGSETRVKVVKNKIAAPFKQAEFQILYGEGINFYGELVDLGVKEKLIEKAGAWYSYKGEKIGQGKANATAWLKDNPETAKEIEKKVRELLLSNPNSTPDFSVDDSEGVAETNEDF

Q: “LexA G80P, full-length cleavage loop variant (from UniProt P0A7C2 1-202) (natural protein)” was tested. Which fold decrease in apparent affinity for RecA* against LexA-S119A did it give?
A: > 10 fold

Q: “LexA V82M, full-length cleavage loop variant (from UniProt P0A7C2 1-202) (natural protein)” was tested. Which fold decrease in apparent affinity for RecA* against LexA-S119A did it give?
A: > 10 fold
